What was measured:
[1] = Western blot of yeast culture supernatant, 30°C; details: glycan lost; control: wild-type full-length GA
[2] = extracellular GA activity of yeast cultures, 30°C; details: glycan lost; control: wild-type full-length GA

B1: Rhizopus oryzae glucoamylase (RoGA): Asn167 to Gln (protein)
parent chain: MQLFNLPLKVSFFLVLSYFSLLVSAASIPSSASVQLDSYNYDGSTFSGKIYVKNIAYSKKVTVIYADGSDNWNNNGNTIAASYSAPISGSNYEYWTFSASINGIKEFYIKYEVSGKTYYDNNNSANYQVSTSKPTTTTATATTTTAPSTSTTTPPSRSEPATFPTGNSTISSWIKKQEGISRFAMLRNINPPGSATGFIAASLSTAGPDYYYAWTRDAALTSNVIVYEYNTTLSGNKTILNVLKDYVTFSVKTQSTSTVCNCLGEPKFNPDASGYTGAWGRPQNDGPAERATTFILFADSYLTQTKDASYVTGTLKPAIFKDLDYVVNVWSNGCFDLWEEVNGVHFYTLMVMRKGLLLGADFAKRNGDSTRASTYSSTASTIANKISSFWVSSNNWIQVSQSVTGGVSKKGLDVSTLLAANLGSVDDGFFTPGSEKILATAVAVEDSFASLYPINKNLPSYLGNSIGRYPEDTYNGNGNSQGNSWFLAVTGYAELYYRAIKEWIGNGGVTVSSISLPFFKKFDSSATSGKKYTVGTSDFNNLAQNIALAADRFLSTVQLHAHNNGSLAEEFDRTTGLSTGARDLTWSHASLITASYAKAGAPAA
With B1 the expression_or_secretion [1] was “decreases”.

B2: Rhizopus oryzae glucoamylase (RoGA): T165A (protein)
parent chain: B1 parent chain
In the case of B2, the enzymatic_activity [2] is reported as “no change” and the expression_or_secretion [1] is reported as “no change”.

Reference: publication PMC1933424
